{
  "source": "patent US20120324602A1",
  "experiment_in_all_cases": "TAP-MS, C-terminal GS tag",
  "key": {"[1]": {"target": "T1, phytochrome A supressor spa1 (SPA1) (Arabidopsis thaliana)", "T1 sequence (Q9SYX2 1-1029, looked up)": "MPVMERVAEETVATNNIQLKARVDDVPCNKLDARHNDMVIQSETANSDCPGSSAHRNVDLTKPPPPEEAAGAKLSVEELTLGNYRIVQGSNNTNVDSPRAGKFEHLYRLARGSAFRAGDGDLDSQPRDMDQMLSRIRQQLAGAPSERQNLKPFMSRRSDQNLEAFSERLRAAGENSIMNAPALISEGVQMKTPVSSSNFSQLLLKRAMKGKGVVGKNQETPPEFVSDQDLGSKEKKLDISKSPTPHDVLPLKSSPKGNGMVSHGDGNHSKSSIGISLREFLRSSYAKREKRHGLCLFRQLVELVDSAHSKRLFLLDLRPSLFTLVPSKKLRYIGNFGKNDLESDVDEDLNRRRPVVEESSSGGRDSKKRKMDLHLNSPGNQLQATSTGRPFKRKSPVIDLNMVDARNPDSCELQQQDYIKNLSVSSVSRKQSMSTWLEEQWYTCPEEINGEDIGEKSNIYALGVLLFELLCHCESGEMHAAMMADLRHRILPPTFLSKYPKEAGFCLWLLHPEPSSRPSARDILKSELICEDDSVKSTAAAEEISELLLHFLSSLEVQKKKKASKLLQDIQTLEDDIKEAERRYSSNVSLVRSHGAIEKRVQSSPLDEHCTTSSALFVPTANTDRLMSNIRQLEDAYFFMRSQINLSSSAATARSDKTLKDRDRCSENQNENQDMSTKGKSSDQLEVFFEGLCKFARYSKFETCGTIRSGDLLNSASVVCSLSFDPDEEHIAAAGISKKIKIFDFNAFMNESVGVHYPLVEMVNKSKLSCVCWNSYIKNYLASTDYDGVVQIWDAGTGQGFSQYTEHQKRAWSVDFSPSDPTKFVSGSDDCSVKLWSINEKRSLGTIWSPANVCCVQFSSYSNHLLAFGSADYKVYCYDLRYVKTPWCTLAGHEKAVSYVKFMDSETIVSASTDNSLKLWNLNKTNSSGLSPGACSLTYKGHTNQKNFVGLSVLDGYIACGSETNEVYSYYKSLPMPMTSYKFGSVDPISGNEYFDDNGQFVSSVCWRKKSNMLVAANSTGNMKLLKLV"}, "[2]": {"target": "expressed protein (AT5G13030) (Arabidopsis thaliana)"}, "[3]": {"target": "T2, SWIRM domain-containing protein (SWI3C) (Arabidopsis thaliana)", "T2 sequence (Q9XI07 1-807, looked up)": "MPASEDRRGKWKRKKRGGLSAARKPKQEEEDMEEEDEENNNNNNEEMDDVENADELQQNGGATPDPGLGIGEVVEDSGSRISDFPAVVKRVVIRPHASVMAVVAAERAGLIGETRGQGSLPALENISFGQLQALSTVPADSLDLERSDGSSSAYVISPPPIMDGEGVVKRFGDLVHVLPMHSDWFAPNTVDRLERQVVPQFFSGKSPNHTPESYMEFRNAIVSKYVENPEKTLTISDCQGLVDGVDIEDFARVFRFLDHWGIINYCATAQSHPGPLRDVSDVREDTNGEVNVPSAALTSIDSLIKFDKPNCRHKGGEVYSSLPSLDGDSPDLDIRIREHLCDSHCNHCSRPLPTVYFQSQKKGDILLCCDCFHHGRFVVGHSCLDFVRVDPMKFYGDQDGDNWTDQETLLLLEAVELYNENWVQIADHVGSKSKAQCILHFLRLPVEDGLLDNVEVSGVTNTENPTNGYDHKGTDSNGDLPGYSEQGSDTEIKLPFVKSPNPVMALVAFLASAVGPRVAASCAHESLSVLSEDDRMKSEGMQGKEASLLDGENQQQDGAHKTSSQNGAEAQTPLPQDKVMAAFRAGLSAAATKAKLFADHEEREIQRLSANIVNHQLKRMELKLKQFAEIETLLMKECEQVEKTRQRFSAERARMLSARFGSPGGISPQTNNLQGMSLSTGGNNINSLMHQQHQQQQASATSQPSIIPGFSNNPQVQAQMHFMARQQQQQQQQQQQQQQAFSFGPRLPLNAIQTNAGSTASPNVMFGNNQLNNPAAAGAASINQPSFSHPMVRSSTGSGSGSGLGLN"}, "[4]": {"target": "expressed protein, similar to DAG protein (AT3G15000) (Arabidopsis thaliana)"}, "[5]": {"target": "homeobox-leucine zipper protein (HB-2)/HD-ZIP protein (Arabidopsis thaliana)"}, "[6]": {"target": "importin beta-2 (Arabidopsis thaliana)"}, "[7]": {"target": "importin alpha-1 subunit (IMPA4) (Arabidopsis thaliana)"}, "[8]": {"target": "SNF2 protein (BRM) (Arabidopsis thaliana)"}, "[9]": {"target": "expressed protein, similar to At4g22320 (AT5G55210) (Arabidopsis thaliana)"}, "[10]": {"target": "DNA-binding bromodomain-containing protein (AT1G20670) (Arabidopsis thaliana)"}, "[11]": {"target": "26S proteasome regulatory subunit (RPN9) (Arabidopsis thaliana)"}, "[12]": {"target": "expressed protein, similar to At3g03460 (AT5G17510) (Arabidopsis thaliana)"}, "[13]": {"target": "splicing factor (AT3G55220) (Arabidopsis thaliana)"}, "[14]": {"target": "T3, actin-related protein 7 (ARP7) (Arabidopsis thaliana)", "T3 sequence (Q8L4Y5 1-363, looked up)": "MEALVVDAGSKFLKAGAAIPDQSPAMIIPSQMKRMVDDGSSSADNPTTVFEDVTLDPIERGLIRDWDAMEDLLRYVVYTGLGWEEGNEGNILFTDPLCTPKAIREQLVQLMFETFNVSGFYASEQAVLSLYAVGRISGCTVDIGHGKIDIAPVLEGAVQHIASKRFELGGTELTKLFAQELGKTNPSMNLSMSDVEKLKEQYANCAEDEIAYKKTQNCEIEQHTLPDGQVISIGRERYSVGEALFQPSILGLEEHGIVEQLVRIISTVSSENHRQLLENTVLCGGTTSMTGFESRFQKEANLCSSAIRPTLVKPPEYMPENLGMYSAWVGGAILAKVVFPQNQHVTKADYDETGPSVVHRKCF"}, "[15]": {"target": "chromatin remodeling protein (SYD) (Arabidopsis thaliana)"}, "[16]": {"target": "importin alpha-1 subunit (IMPA1) (Arabidopsis thaliana)"}, "[17]": {"target": "importin alpha-2 (IMPA2) (Arabidopsis thaliana)"}, "[18]": {"target": "SWIB complex BAF60b domain-containing protein (Swp73B) (Arabidopsis thaliana)"}, "[19]": {"target": "T4, actin-related protein 4 (ARP4) (Arabidopsis thaliana)", "T4 sequence (Q84M92 1-441, looked up)": "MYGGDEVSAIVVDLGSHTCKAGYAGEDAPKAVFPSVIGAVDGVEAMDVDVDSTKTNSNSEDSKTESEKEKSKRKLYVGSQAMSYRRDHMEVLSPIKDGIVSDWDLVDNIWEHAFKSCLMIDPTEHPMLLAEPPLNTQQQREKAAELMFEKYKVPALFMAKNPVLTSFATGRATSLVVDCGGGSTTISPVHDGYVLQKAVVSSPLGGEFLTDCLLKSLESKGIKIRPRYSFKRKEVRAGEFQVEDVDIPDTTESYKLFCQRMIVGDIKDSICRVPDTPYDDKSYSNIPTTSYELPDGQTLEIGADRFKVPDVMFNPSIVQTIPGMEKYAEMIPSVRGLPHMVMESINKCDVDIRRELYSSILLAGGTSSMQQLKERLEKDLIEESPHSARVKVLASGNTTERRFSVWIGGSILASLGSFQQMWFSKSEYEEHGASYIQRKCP"}, "[20]": {"target": "G2484-1, agenet domain-containing protein (Arabidopsis thaliana)"}, "[21]": {"target": "DNA-binding bromodomain-containing protein, similar to At1g20670 (AT5G55040) (Arabidopsis thaliana)"}, "[22]": {"target": "Swp73A (Arabidopsis thaliana)"}, "[23]": {"target": "RD21 (RESPONSIVE TO …ON 21) (Arabidopsis thaliana)"}, "[24]": {"target": "unknown protein, similar to At5g17510 (AT3G03460) (Arabidopsis thaliana)"}, "[25]": {"target": "DNA-binding bromodomain-containing protein, similar to At1g20670 (AT1G76380) (Arabidopsis thaliana)"}, "[26]": {"target": "T5, SE (SERRATE) (Arabidopsis thaliana)", "T5 sequence (Q9ZVD0 1-720, looked up)": "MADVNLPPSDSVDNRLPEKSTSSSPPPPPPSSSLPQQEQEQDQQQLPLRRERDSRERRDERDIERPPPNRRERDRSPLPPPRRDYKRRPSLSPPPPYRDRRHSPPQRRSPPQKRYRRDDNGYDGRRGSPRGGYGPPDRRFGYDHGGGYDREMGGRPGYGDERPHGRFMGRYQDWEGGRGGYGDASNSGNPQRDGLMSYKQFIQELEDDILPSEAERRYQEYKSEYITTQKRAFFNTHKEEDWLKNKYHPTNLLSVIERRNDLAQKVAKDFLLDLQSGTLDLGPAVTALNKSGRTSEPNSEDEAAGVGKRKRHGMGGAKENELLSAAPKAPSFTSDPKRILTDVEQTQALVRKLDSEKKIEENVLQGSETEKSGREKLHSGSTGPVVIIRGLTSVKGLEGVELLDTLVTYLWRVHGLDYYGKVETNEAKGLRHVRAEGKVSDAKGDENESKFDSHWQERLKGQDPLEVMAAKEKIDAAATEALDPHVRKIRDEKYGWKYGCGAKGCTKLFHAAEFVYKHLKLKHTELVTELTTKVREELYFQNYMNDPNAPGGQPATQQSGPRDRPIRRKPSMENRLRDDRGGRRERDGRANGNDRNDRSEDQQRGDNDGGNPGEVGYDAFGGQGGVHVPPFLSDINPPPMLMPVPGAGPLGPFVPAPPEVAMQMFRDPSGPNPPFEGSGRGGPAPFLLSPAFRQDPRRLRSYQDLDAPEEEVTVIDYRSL"}},
  "data": [
    {"binder": "AN3-GS (protein, UniProt Q8L8A5 1-210, looked up, C-terminal GS tag) GRF1-interacting factor 1: MQQHLMQMQPMMAGYYPSNVTSDHIQQYLDENKSLILKIVESQNSGKLSECAENQARLQRNLMYLAAIADSQPQPPSVHSQYGSAGGGMIQGEGGSHYLQQQQATQQQQMTQQSLMAARSSMLYAQQQQQQQPYATLQHQQLHHSQLGMSSSSGGGGSSGLHILQGEAGGFHDFGRGKPEMGSGGGGEGRGGSSGDGGETLYLKSSDDGN", "values": [
      {"measurement": "C-GS (times co-purified)", "setting": "[1]", "value": 1},
      {"measurement": "C-GS (times co-purified)", "setting": "[2]", "value": 1},
      {"measurement": "C-GS (times co-purified)", "setting": "[3]", "value": 4},
      {"measurement": "C-GS (times co-purified)", "setting": "[4]", "value": 3},
      {"measurement": "C-GS (times co-purified)", "setting": "[5]", "value": 1},
      {"measurement": "C-GS (times co-purified)", "setting": "[6]", "value": 4},
      {"measurement": "C-GS (times co-purified)", "setting": "[7]", "value": 1},
      {"measurement": "C-GS (times co-purified)", "setting": "[8]", "value": 4},
      {"measurement": "C-GS (times co-purified)", "setting": "[9]", "value": 4},
      {"measurement": "C-GS (times co-purified)", "setting": "[10]", "value": 1},
      {"measurement": "C-GS (times co-purified)", "setting": "[11]", "value": 1},
      {"measurement": "C-GS (times co-purified)", "setting": "[12]", "value": 3},
      {"measurement": "C-GS (times co-purified)", "setting": "[13]", "value": 1},
      {"measurement": "C-GS (times co-purified)", "setting": "[14]", "value": 4},
      {"measurement": "C-GS (times co-purified)", "setting": "[15]", "value": 4},
      {"measurement": "C-GS (times co-purified)", "setting": "[16]", "value": 4},
      {"measurement": "C-GS (times co-purified)", "setting": "[17]", "value": 4},
      {"measurement": "C-GS (times co-purified)", "setting": "[18]", "value": 4},
      {"measurement": "C-GS (times co-purified)", "setting": "[19]", "value": 4},
      {"measurement": "C-GS (times co-purified)", "setting": "[20]", "value": 4}
    ]},
    {"binder": "ARP4-GS (protein, UniProt Q84M92 1-441, looked up, C-terminal GS tag) Actin-related protein 4: MYGGDEVSAIVVDLGSHTCKAGYAGEDAPKAVFPSVIGAVDGVEAMDVDVDSTKTNSNSEDSKTESEKEKSKRKLYVGSQAMSYRRDHMEVLSPIKDGIVSDWDLVDNIWEHAFKSCLMIDPTEHPMLLAEPPLNTQQQREKAAELMFEKYKVPALFMAKNPVLTSFATGRATSLVVDCGGGSTTISPVHDGYVLQKAVVSSPLGGEFLTDCLLKSLESKGIKIRPRYSFKRKEVRAGEFQVEDVDIPDTTESYKLFCQRMIVGDIKDSICRVPDTPYDDKSYSNIPTTSYELPDGQTLEIGADRFKVPDVMFNPSIVQTIPGMEKYAEMIPSVRGLPHMVMESINKCDVDIRRELYSSILLAGGTSSMQQLKERLEKDLIEESPHSARVKVLASGNTTERRFSVWIGGSILASLGSFQQMWFSKSEYEEHGASYIQRKCP", "values": [
      {"measurement": "C-GS (times co-purified)", "setting": "[3]", "value": 2},
      {"measurement": "C-GS (times co-purified)", "setting": "[8]", "value": 2},
      {"measurement": "C-GS (times co-purified)", "setting": "[9]", "value": 1},
      {"measurement": "C-GS (times co-purified)", "setting": "[10]", "value": 2},
      {"measurement": "C-GS (times co-purified)", "setting": "[21]", "value": 1},
      {"measurement": "C-GS (times co-purified)", "setting": "[22]", "value": 2},
      {"measurement": "C-GS (times co-purified)", "setting": "[23]", "value": 2},
      {"measurement": "C-GS (times co-purified)", "setting": "[12]", "value": 2},
      {"measurement": "C-GS (times co-purified)", "setting": "[14]", "value": 2},
      {"measurement": "C-GS (times co-purified)", "setting": "[24]", "value": 1},
      {"measurement": "C-GS (times co-purified)", "setting": "[25]", "value": 2},
      {"measurement": "C-GS (times co-purified)", "setting": "[18]", "value": 2},
      {"measurement": "C-GS (times co-purified)", "setting": "[26]", "value": 1}
    ]}
  ]
}
